Results from patent US20230133775A1.

Target: Leucine-rich repeat-containing protein 15 (LRRC15) on LRRC15-expressing cells (UniProt Q8TF66)
Assay: cell-based or functional assay

Chain of Leucine-rich repeat-containing protein 15 (LRRC15) on LRRC15-expressing cells (Q8TF66 22-581 limits assumed): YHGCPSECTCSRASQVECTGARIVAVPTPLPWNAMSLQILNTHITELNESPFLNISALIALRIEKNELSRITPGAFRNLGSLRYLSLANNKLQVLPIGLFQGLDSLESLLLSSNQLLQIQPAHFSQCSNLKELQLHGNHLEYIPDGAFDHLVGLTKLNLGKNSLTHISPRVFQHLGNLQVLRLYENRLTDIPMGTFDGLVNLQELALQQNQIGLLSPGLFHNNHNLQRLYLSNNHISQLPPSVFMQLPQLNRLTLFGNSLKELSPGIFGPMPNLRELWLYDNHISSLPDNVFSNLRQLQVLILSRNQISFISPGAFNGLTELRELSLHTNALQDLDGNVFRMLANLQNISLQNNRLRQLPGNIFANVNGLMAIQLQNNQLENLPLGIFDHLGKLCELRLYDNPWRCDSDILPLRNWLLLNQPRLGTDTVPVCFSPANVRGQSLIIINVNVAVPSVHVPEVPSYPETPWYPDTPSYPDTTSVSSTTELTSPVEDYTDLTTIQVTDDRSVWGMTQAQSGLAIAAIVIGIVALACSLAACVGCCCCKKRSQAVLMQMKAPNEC

non-specific low fucose isotype control (IgG1-LF) (antibody)
target cell death in the ADCC assay with NK92-CD16 effector cells: < 30%
